Among the data in the RNAGym collection of RNA variant scans (doi:10.7554/elife.80360) are self-cleavage values, retold here.

B1: CPEB3 Ribozyme (parent)
chain: GGGGGCCACAGCAGAAGCGUUCACGUCGCGGCCCCUGUCAGAUUCUGGUGAAUCUGCGAAUUCUGCUGU

This data set covers variants of B1. Briefly: self-cleavage, relative activity (ratio to wild type); higher = more cleavage; co-transcriptional.
For the variant GGGGGCCACAGCAGAAGCGUUCACGUCGCGGCCCCUGUCAGAUUCUGGAGAAUCCGCGAAUUCUGCUGU [U49A U55C], the self-cleavage came out at 0.895.

GGGGGCCACAGCAGAAGCGUUCACGUCGCGGCCCCUGUCAGAUUCUGGAGAAUCGGCGAAUUCUGCUGU [U49A U55G]: the self-cleavage is 0.907.

GGGGGCCACAGCAGAAGCGUUCACGUCGCGGCCCCUGUCAGAUUCUGGAGAAUCUGCGAAUGCUGCUGU [U49A U62G]: the self-cleavage is 0.919.

GGGGGCCACAGCAGAAGCGUUCACGUCGCGGCCCCUGUCAGAUUCUGCUGAAUCUGCGAAUUCAGCUGU [G48C U64A]: the self-cleavage is 0.864.

With GGGGGCCACAGCAGAAGCGUUCACGUCGCGGCCCCUGUCAGAUUCUGCUGAAUCUGCGAAUUCGGCUGU [G48C U64G], the self-cleavage was 0.974.

Take GGGGGCCACAGCAGAAGCGUUCACGUCGCGGCCCCUGUCAGAUUCUGGAGAACCUGCGAAUUCUGCUGU [U49A U53C]: the self-cleavage amounted to 0.991.

In the case of GGGGGCCACAGCAGAAGCGUUCACGUCGCGGCCCCUGUCAGAUUCUGCUGAAUCUGCGAAUACUGCUGU [G48C U62A], the self-cleavage was 0.994.

Consider GGGGGCCACAGCAGAAGCGUUCACGUCGCGGCCCCUGUCAGAUUCUGCUGAAUCUGCGAAUCCUGCUGU [G48C U62C], for which the self-cleavage was found to be 0.946.

Turning to GGGGGCCACAGCAGAAGCGUUCACGUCGCGGCCCCUGUCAGAUUCUGCUGUAUCUGCGAAUUCUGCUGU [G48C A51U], the self-cleavage was found to be 0.976.

As for GGGGGCCACAGCAGAAGCGUUCACGUCGCGGCCCCUGUCAGAUUCUGCUGCAUCUGCGAAUUCUGCUGU [G48C A51C], the self-cleavage was found to be 1.02.

Take GGGGGCCACAGCAGAAGCGUUCACGUCGCGGCCCCUGUCAGAUUCUGGCAAAUCUGCGAAUUCUGCUGU [U49C G50A]: the self-cleavage was determined as 0.981.

As for GGGGGCCACAGCAGAAGCGUUCACGUCGCGGCCCCUGUCAGAUUCUGGAGAAUCUGCGAACUCUGCUGU [U49A U61C], the self-cleavage is 0.91.

With GGGGGCCACAGCAGAAGCGUUCACGUCGCGGCCCCUGUCAGAUUCUGCUGAAUCUGCGAAAUCUGCUGU [G48C U61A], the self-cleavage was 0.962.

As for GGGGGCCACAGCAGAAGCGUUCACGUCGCGGCCCCUGUCAGAUUCUGGAGAAUCUGCGAAUUCUGCUGU [U49A], the self-cleavage was determined as 1.

For the variant GGGGGCCACAGCAGAAGCGUUCACGUCGCGGCCCCUGUCAGAUUCUGGCGAAUCUGCGAAUUCUGCUGU [U49C], the self-cleavage is 0.988.

On to GGGGGCCACAGCAGAAGCGUUCACGUCGCGGCCCCUGUCAGAUUCUGGCGAAUCUGCGAAUUCUGAUGU [U49C C66A], for which the self-cleavage is 0.77.

Take GGGGGCCACAGCAGAAGCGUUCACGUCGCGGCCCCUGUCAGAUUCUGCUGAAUCUGUGAAUUCUGCUGU [G48C C57U]: the self-cleavage stood at 0.32.

GGGGGCCACAGCAGAAGCGUUCACGUCGCGGCCCCUGUCAGAUUCUGCUGAAUCUGCGAAUUCUGCUUU [G48C G68U]: the self-cleavage came out at 0.985.

As to GGGGGCCACAGCAGAAGCGUUCACGUCGCGGCCCCUGUCAGAUUCUGCUGAAUCUGCGAAUUCUGCUCU [G48C G68C], the self-cleavage is 0.992.

Regarding GGGGGCCACAGCAGAAGCGUUCACGUCGCGGCCCCUGUCAGAUUCUGAUGAAUCUGCGAAUUCUGCUGG [G48A U69G], the self-cleavage was determined as 1.07.

Turning to GGGGGCCACAGCAGAAGCGUUCACGUCGCGGCCCCUGUCAGAUUCUGGAGGAUCUGCGAAUUCUGCUGU [U49A A51G], the self-cleavage came to 1.05.

On to GGGGGCCACAGCAGAAGCGUUCACGUCGCGGCCCCUGUCAGAUUCUGGAGCAUCUGCGAAUUCUGCUGU [U49A A51C], for which the self-cleavage came to 0.633.

Take GGGGGCCACAGCAGAAGCGUUCACGUCGCGGCCCCUGUCAGAUUCUGCUGAAUCUGCGUAUUCUGCUGU [G48C A59U]: the self-cleavage stood at 0.861.

Turning to GGGGGCCACAGCAGAAGCGUUCACGUCGCGGCCCCUGUCAGAUUCUGGCGAAUCUGCGAGUUCUGCUGU [U49C A60G], the self-cleavage turned out to be 0.955.

In the case of GGGGGCCACAGCAGAAGCGUUCACGUCGCGGCCCCUGUCAGAUUCUGGAGAAUCUGCAAAUUCUGCUGU [U49A G58A], the self-cleavage is 1.01.

Regarding GGGGGCCACAGCAGAAGCGUUCACGUCGCGGCCCCUGUCAGAUUCUGGAGAAUCUGCGAAUUCUGCUGC [U49A U69C], the self-cleavage came out at 1.06.

Regarding GGGGGCCACAGCAGAAGCGUUCACGUCGCGGCCCCUGUCAGAUUCUGGAGAAUCUGCGAAUUCUGCUGA [U49A U69A], the self-cleavage was determined as 0.976.

Take GGGGGCCACAGCAGAAGCGUUCACGUCGCGGCCCCUGUCAGAUUCUGGAUAAUCUGCGAAUUCUGCUGU [U49A G50U]: the self-cleavage came out at 0.986.

Turning to GGGGGCCACAGCAGAAGCGUUCACGUCGCGGCCCCUGUCAGAUUCUGGCGAAUCUUCGAAUUCUGCUGU [U49C G56U], the self-cleavage is 0.948.

Regarding GGGGGCCACAGCAGAAGCGUUCACGUCGCGGCCCCUGUCAGAUUCUGGCGAAUCUACGAAUUCUGCUGU [U49C G56A], the self-cleavage came to 0.935.

In the case of GGGGGCCACAGCAGAAGCGUUCACGUCGCGGCCCCUGUCAGAUUCUGUUGAAUUUGCGAAUUCUGCUGU [G48U C54U], the self-cleavage was found to be 1.02.

Consider GGGGGCCACAGCAGAAGCGUUCACGUCGCGGCCCCUGUCAGAUUCUGUUGAAUAUGCGAAUUCUGCUGU [G48U C54A], for which the self-cleavage was 0.994.

Regarding GGGGGCCACAGCAGAAGCGUUCACGUCGCGGCCCCUGUCAGAUUCUGUUGAAUCUGCGAAUGCUGCUGU [G48U U62G], the self-cleavage came out at 0.927.

For the variant GGGGGCCACAGCAGAAGCGUUCACGUCGCGGCCCCUGUCAGAUUCUGUUGAAUCUGCGAAUACUGCUGU [G48U U62A], the self-cleavage was 0.922.

As for GGGGGCCACAGCAGAAGCGUUCACGUCGCGGCCCCUGUCAGAUUCUGCUGAAUCUGCGAAUUCUGUUGU [G48C C66U], the self-cleavage was determined as 0.998.

Regarding GGGGGCCACAGCAGAAGCGUUCACGUCGCGGCCCCUGUCAGAUUCUGAUGAAUCAGCGAAUUCUGCUGU [G48A U55A], the self-cleavage came out at 0.99.

As for GGGGGCCACAGCAGAAGCGUUCACGUCGCGGCCCCUGUCAGAUUCUGGCGAAUCUGCGAAUUUUGCUGU [U49C C63U], the self-cleavage amounted to 0.993.

With GGGGGCCACAGCAGAAGCGUUCACGUCGCGGCCCCUGUCAGAUUCUGGCGAAUCUGCCAAUUCUGCUGU [U49C G58C], the self-cleavage stood at 0.993.

In the case of GGGGGCCACAGCAGAAGCGUUCACGUCGCGGCCCCUGUCAGAUUCUGGCGAAUCGGCGAAUUCUGCUGU [U49C U55G], the self-cleavage is 0.816.
